Patent publication US9096650B2, “Cyclic oligopeptides for binding to a target ligand” (LEXCICON LIMITED, priority 2006, dated 2015)
Blank lines part the entries; values can stand above or below the molecule they belong to. Bridges are numbered along the chain shown (N, C = ends). [ ]: non-standard residue; d: D form. Gly(decyl) = CCCCCCCCCC[C@H](N)C(=O)O

Legend:
thrombin [1] = molecular target: thrombin (Homo sapiens, UniProt P00734); experiment: Inhibition of enzyme activity of thrombin, fluorogenic substrate (Example 7); type: biochemical
Procedure: 1. Cyclic oligopeptides of the following structures were synthesised as previously described, and prepared in complexed form with cyclodextrin at concentration of 1 mg/ml on Hanks Balanced Salts Solution using the procedure outlined in example 6. (i) cyclo(-R-E-Σ-S-R-E-R-Σ-S-E-) (ii) cyclo(-A-K-ΣE-Y-K-A-ΣY-E-) (iii) cyclo(-dF-R-C-S-dF-R-C-S-) (iv) cyclo(-dF-S-C-R-dF-S-C-R-)
2. In wells of a […] microplate, 20 ul of thrombin solution (0.01 mg/ml) were dispensed, and mixed with 60 ul of cyclic oligopeptide solution
3. 20 ul of the substrate boc-beta-benzyl-Asp-Pro-Arg-7-amido-4-methylcoumarin hydrochloride (0.01 mg/ml) was added to each well, and the time course of generation of […] was measured.

[2] = tested on: J774A.1 cells (a macrophage cell line); experiment: Suppression of LPS-stimulated TNF secretion by cyclic oligopeptides containing two different epitopes (Example 8); type: cell-based; conditions: LPS 0.1 ug/ml
Procedure: • 1. Two cyclic oligopeptides were prepared with the following structures: (i) cyclo(-dF-S-Σ-Q-dL-S-Σ-R-) • and (ii) cyclo(-dF-S-Σ-L-dQ-S-Σ-R) • All amino acids are in the L form unless indicated otherwise. • All amino acids are linked by peptide bonds. wherein Q, L, S, R and F represent the epitope-forming amino acids and Σ represents the associating functional group borne on the associating amino acid wherein the associating amino acid is an L-alpha aminocarboxylic acid and the associating functional group is a side-chain residue consisting of a straight aliphatic chain containing ten carbon atoms.
These cyclic oligopeptides were prepared as solutions in transcutol/cyclodextrin, as described in example 4, to give a final concentration of peptide of 1 mg/ml, and cyclodextrin at 20 mg/ml. • 2. J774A.1 cells (a macrophage cell line) were plated out in all the wells of three 24-well cluster plates at a seeding density of 3×10^5 cells/ml/well (1 ml RPMI 1640 culture medium per well), and incubated overnight at 37° C. in 5% CO2/air. • 3. The following day, the solutions from step 1 were administered to wells containing cells in step 2, to give three wells each with a final concentration of 50, 25, 12.5, 6.25 or 3.125 ug/ml of cyclic oligopeptide. Additional wells containing cyclodextrin at 1, 0.5, 0.25, 0.125 and 0.0625 mg/ml were also prepared. The remaining wells were left untreated. The plate was incubated for a further four hours at 37 degC. • 4. Lipopolysaccharide (from E. coli strain 0111 B4) was added to the wells receiving the octapeptide solution, as well as three of the wells receiving no peptide. The final concentration of lipopolysaccharide was 0.1 ug/ml. • 5. The plate was incubated overnight, and the following day the supernatants were assayed for TNF using a commercial ELISA kit.

[3] = tested on: J774-1 cells (a macrophage cell line); experiment: Suppression of TNF secretion stimulated by LPS in a macrophage cell line, varying epitope order and stereochemistry of associating amino acids (Example 3); type: cell-based; conditions: peptide 50 ug/ml; LPS 1.25 ug/ml; LPS alone 1861.9
Procedure: • 1. Cyclic octapeptides were prepared with the following structures: cyclo(-DF-S-ΣL-R-DF-S-ΣL-R-) cyclo(-DF-S-ΣL-R-DF-S-ΣD-R-) cyclo(-DF-S-ΣD-R-DF-S-ΣD-R-) cyclo(-DF-R-ΣL-S-DF-R-ΣL-S-) cyclo(-DF-R-ΣL-S-DF-R-ΣD-S-) cyclo(-DF-R-ΣD-S-DF-R-ΣD-S-) wherein F, S and R are the epitope-forming amino acids, ΣL represents an associating amino acid which is an L-alpha aminocarboxylic acid in which the associating functional group is a side-chain residue consisting of an unbranched —C10H21; ΣD represents an associating amino acid which is a D-alpha aminocarboxylic acid in which the associating functional group is a side-chain residue consisting an unbranched —C10H21. These cyclic oligopeptides were prepared as solutions in distilled water at a concentration of 1 mg/ml. • 2. J774-1 cells (a macrophage cell line) were plated out in all the wells of a 24-well cluster plates at a seeding density of 3×10^5 cells/ml/well (1 ml RPMI 1640 culture medium per well), and incubated overnight at 37° C. in 5% CO2/air. • 3. The following day, the solutions from step 1 were administered to eighteen wells containing cells in step 2, to give three wells each with a final concentration of 50 ug/ml. The remaining wells were left untreated. The plate was incubated for a further four hours at 37 degC. • 4. Lipopolysaccharide (from E. coli strain 0111 B4) was added to the wells receiving the octapeptide solutions, as well as three of the wells receiving no peptide. The concentration of lipopolysaccharide was 1.25 ug/ml. • 5. The plate was incubated overnight, and the following day the supernatants were assayed for TNF using a commercial ELISA kit.

thrombin [4] = experiment: cell-based or functional assay

Molecule: cyclo(-DF-R-ΣD-S-DF-R-ΣD-S-)
- Concentration of TNF [3]: 1573.3 pg/mL

B1: cyclo(-dF-S-C-R-dF-S-C-R-) (peptide)
peptide: cyclo([dF]SCR[dF]SCR)
modifications: disulfide 3-7
SMILES: N=C(N)NCCC[C@@H]1NC(=O)[C@@H]2CSSC[C@H](NC(=O)[C@H](CO)NC(=O)[C@@H](Cc3ccccc3)NC1=O)C(=O)N[C@@H](CCCNC(=N)N)C(=O)N[C@H](Cc1ccccc1)C(=O)N[C@@H](CO)C(=O)N2
- Inhibition of Thrombin proteolytic activity (Fluorescence Units - Arbitrary Units) at 2.0 minutes; control (enzyme alone) 770.9 (Fluorescence Units - Arbitrary Units) (thrombin [4]): 523
- Inhibition of Thrombin proteolytic activity (Fluorescence Units - Arbitrary Units) at 5.0 minutes; control (enzyme alone) 1821.1 (Fluorescence Units - Arbitrary Units) (thrombin [4]): 1210
- Inhibition of Thrombin proteolytic activity (Fluorescence Units - Arbitrary Units) at 10.0 minutes; control (enzyme alone) 2163.5 (Fluorescence Units - Arbitrary Units) (thrombin [4]): 1590
- Inhibition of Thrombin proteolytic activity (Fluorescence Units - Arbitrary Units) at 15.0 minutes; control (enzyme alone) 2253.2 (Fluorescence Units - Arbitrary Units) (thrombin [4]): 1750
- Inhibition of Thrombin proteolytic activity (Fluorescence Units - Arbitrary Units) at 20.0 minutes; control (enzyme alone) 2345.8 (Fluorescence Units - Arbitrary Units) (thrombin [4]): 1840
- Inhibition of Thrombin proteolytic activity (Fluorescence Units - Arbitrary Units) at 25.0 minutes; control (enzyme alone) 2359.0 (Fluorescence Units - Arbitrary Units) (thrombin [4]): 1860

B2: cyclo(-dF-R-C-S-dF-R-C-S-) (peptide)
peptide: cyclo([dF]RCS[dF]RCS)
modifications: disulfide 3-7
SMILES: N=C(N)NCCC[C@@H]1NC(=O)[C@@H](Cc2ccccc2)NC(=O)[C@H](CO)NC(=O)[C@@H]2CSSC[C@H](NC1=O)C(=O)N[C@@H](CO)C(=O)N[C@H](Cc1ccccc1)C(=O)N[C@@H](CCCNC(=N)N)C(=O)N2
- Inhibition of Thrombin proteolytic activity (Fluorescence Units - Arbitrary Units) at 2.0 minutes; control (enzyme alone) 770.9 (Fluorescence Units - Arbitrary Units) (thrombin [4]): 634
- Inhibition of Thrombin proteolytic activity (Fluorescence Units - Arbitrary Units) at 5.0 minutes; control (enzyme alone) 1821.1 (Fluorescence Units - Arbitrary Units) (thrombin [4]): 1370
- Inhibition of Thrombin proteolytic activity (Fluorescence Units - Arbitrary Units) at 10.0 minutes; control (enzyme alone) 2163.5 (Fluorescence Units - Arbitrary Units) (thrombin [4]): 1790
- Inhibition of Thrombin proteolytic activity (Fluorescence Units - Arbitrary Units) at 15.0 minutes; control (enzyme alone) 2253.2 (Fluorescence Units - Arbitrary Units) (thrombin [4]): 1980
- Inhibition of Thrombin proteolytic activity (Fluorescence Units - Arbitrary Units) at 20.0 minutes; control (enzyme alone) 2345.8 (Fluorescence Units - Arbitrary Units) (thrombin [4]): 2110
- Inhibition of Thrombin proteolytic activity (Fluorescence Units - Arbitrary Units) at 25.0 minutes; control (enzyme alone) 2359.0 (Fluorescence Units - Arbitrary Units) (thrombin [4]): 2160

B4: cyclo(-A-K-ΣE-Y-K-A-ΣY-E-) (peptide)
peptide: cyclo(AK[Gly(decyl)]EYKA[Gly(decyl)]YE)
SMILES: CCCCCCCCCC[C@@H]1NC(=O)[C@H](C)NC(=O)[C@H](CCCCN)NC(=O)[C@H](Cc2ccc(O)cc2)NC(=O)[C@H](CCC(=O)O)NC(=O)[C@H](CCCCCCCCCC)NC(=O)[C@H](CCCCN)NC(=O)[C@H](C)NC(=O)[C@H](CCC(=O)O)NC(=O)[C@H](Cc2ccc(O)cc2)NC1=O
- Inhibition of Thrombin proteolytic activity (Fluorescence Units - Arbitrary Units) at 2.0 minutes; control (enzyme alone) 770.9 (Fluorescence Units - Arbitrary Units) (thrombin [4]): 411
- Inhibition of Thrombin proteolytic activity (Fluorescence Units - Arbitrary Units) at 5.0 minutes; control (enzyme alone) 1821.1 (Fluorescence Units - Arbitrary Units) (thrombin [4]): 816
- Inhibition of Thrombin proteolytic activity (Fluorescence Units - Arbitrary Units) at 10.0 minutes; control (enzyme alone) 2163.5 (Fluorescence Units - Arbitrary Units) (thrombin [4]): 1190
- Inhibition of Thrombin proteolytic activity (Fluorescence Units - Arbitrary Units) at 15.0 minutes; control (enzyme alone) 2253.2 (Fluorescence Units - Arbitrary Units) (thrombin [4]): 1400
- Inhibition of Thrombin proteolytic activity (Fluorescence Units - Arbitrary Units) at 20.0 minutes; control (enzyme alone) 2345.8 (Fluorescence Units - Arbitrary Units) (thrombin [4]): 1590
- Inhibition of Thrombin proteolytic activity (Fluorescence Units - Arbitrary Units) at 25.0 minutes; control (enzyme alone) 2359.0 (Fluorescence Units - Arbitrary Units) (thrombin [4]): 1670

Continued, in another order:

- Thrombin proteolytic activity (Fluorescence Units - Arbitrary Units) (thrombin [1]; time 2.0 minutes, enzyme alone 770.9, lower = more inhibition): 410.8 Arbitrary Units
- Thrombin proteolytic activity (Fluorescence Units - Arbitrary Units) (thrombin [1]; time 5.0 minutes, enzyme alone 1821.1): 816.4 Arbitrary Units
- Thrombin proteolytic activity (Fluorescence Units - Arbitrary Units) (thrombin [1]; time 10.0 minutes, enzyme alone 2163.5): 1189.4 Arbitrary Units
- Thrombin proteolytic activity (Fluorescence Units - Arbitrary Units) (thrombin [1]; time 15.0 minutes, enzyme alone 2253.2): 1398.6 Arbitrary Units
- Thrombin proteolytic activity (Fluorescence Units - Arbitrary Units) (thrombin [1]; time 20.0 minutes, enzyme alone 2345.8): 1592.1 Arbitrary Units
- Thrombin proteolytic activity (Fluorescence Units - Arbitrary Units) (thrombin [1]; time 25.0 minutes, enzyme alone 2359.0): 1673.2 Arbitrary Units
Molecule: cyclo(-dF-S-Σ-L-dQ-S-Σ-R) [Example 8 (ii)]
- TNF concentration ([2]; peptide 3.125 ug/ml, 2856 = maximum detectable limit): 2648 ± 43 pg/mL
- TNF concentration ([2]; peptide 6.25 ug/ml): 2325 ± 67 pg/mL
- TNF concentration ([2]; peptide 12.5 ug/ml): 1748 ± 20 pg/mL
- TNF concentration ([2]; peptide 25 ug/ml): 1437 ± 85 pg/mL
- TNF concentration ([2]; peptide 50 ug/ml): 1081 ± 142 pg/mL

- Inhibition of Thrombin proteolytic activity (Fluorescence Units - Arbitrary Units) at 2.0 minutes; control (enzyme alone) 770.9 (Fluorescence Units - Arbitrary Units) (thrombin [4]): 411
- Inhibition of Thrombin proteolytic activity (Fluorescence Units - Arbitrary Units) at 5.0 minutes; control (enzyme alone) 1821.1 (Fluorescence Units - Arbitrary Units) (thrombin [4]): 816
- Inhibition of Thrombin proteolytic activity (Fluorescence Units - Arbitrary Units) at 10.0 minutes; control (enzyme alone) 2163.5 (Fluorescence Units - Arbitrary Units) (thrombin [4]): 1190
- Inhibition of Thrombin proteolytic activity (Fluorescence Units - Arbitrary Units) at 15.0 minutes; control (enzyme alone) 2253.2 (Fluorescence Units - Arbitrary Units) (thrombin [4]): 1400
- Inhibition of Thrombin proteolytic activity (Fluorescence Units - Arbitrary Units) at 20.0 minutes; control (enzyme alone) 2345.8 (Fluorescence Units - Arbitrary Units) (thrombin [4]): 1590
- Inhibition of Thrombin proteolytic activity (Fluorescence Units - Arbitrary Units) at 25.0 minutes; control (enzyme alone) 2359.0 (Fluorescence Units - Arbitrary Units) (thrombin [4]): 1670
B3: cyclo(-R-E-Σ-S-R-E-R-Σ-S-E-) (peptide)
peptide: cyclo(RE[Gly(decyl)]SRER[Gly(decyl)]SE)
SMILES: CCCCCCCCCC[C@@H]1NC(=O)[C@H](CCCNC(=N)N)NC(=O)[C@H](CCC(=O)O)NC(=O)[C@H](CCCNC(=N)N)NC(=O)[C@H](CO)NC(=O)[C@H](CCCCCCCCCC)NC(=O)[C@H](CCC(=O)O)NC(=O)[C@H](CCCNC(=N)N)NC(=O)[C@H](CCC(=O)O)NC(=O)[C@H](CO)NC1=O
